Assay [1] addresses fibronectin from human plasma (human). As to the kind of experiment: ELISA; putative ligands (5 µg/mL in carbonate-bicarbonate buffer, 50 µL) adsorbed on MaxiSorp plates O/N at 4 °C; blocked 1 h with 3% BSA or 1% gelatin in PBS; serial twofold dilutions of 6His-PilB (40 to 0.625 µg/mL) for 2 h at 37 °C; detected with anti-6His antibody and HRP-linked anti-rabbit IgG, read at 450 nm; Kd by nonlinear regression (One site - Total and nonspecific binding) with BSA or gelatin as nonspecific binding control. (An ELISA detects its analyte on a solid surface through an enzyme-linked reagent.)

For assay [2], the target named is fibrinogen from human plasma (human, UniProt P02671 36-866; P02675 45-491; P02679 27-453, Plasma-purified disulfide-linked (AalphaBbetagamma)2 hexamer, N-glycosylated on the beta and gamma chains, fibrinopeptides A and B retained. Limits are not printed. The alpha chain is taken as the mai). In words: ELISA; putative ligands (5 µg/mL in carbonate-bicarbonate buffer, 50 µL) adsorbed on MaxiSorp plates O/N at 4 °C; blocked 1 h with 3% BSA or 1% gelatin in PBS; serial twofold dilutions of 6His-PilB (40 to 0.625 µg/mL) for 2 h at 37 °C; detected with anti-6His antibody and HRP-linked anti-rabbit IgG, read at 450 nm; Kd by nonlinear regression (One site - Total and nonspecific binding) with BSA or gelatin as …. The settings on record: both partners purified.

By Kd is commonly meant the constant that tells how readily two partners part at equilibrium. A higher Kd goes with weaker binding.

Chain of fibrinogen from human plasma (P02671 36-866, chain 1 of 3): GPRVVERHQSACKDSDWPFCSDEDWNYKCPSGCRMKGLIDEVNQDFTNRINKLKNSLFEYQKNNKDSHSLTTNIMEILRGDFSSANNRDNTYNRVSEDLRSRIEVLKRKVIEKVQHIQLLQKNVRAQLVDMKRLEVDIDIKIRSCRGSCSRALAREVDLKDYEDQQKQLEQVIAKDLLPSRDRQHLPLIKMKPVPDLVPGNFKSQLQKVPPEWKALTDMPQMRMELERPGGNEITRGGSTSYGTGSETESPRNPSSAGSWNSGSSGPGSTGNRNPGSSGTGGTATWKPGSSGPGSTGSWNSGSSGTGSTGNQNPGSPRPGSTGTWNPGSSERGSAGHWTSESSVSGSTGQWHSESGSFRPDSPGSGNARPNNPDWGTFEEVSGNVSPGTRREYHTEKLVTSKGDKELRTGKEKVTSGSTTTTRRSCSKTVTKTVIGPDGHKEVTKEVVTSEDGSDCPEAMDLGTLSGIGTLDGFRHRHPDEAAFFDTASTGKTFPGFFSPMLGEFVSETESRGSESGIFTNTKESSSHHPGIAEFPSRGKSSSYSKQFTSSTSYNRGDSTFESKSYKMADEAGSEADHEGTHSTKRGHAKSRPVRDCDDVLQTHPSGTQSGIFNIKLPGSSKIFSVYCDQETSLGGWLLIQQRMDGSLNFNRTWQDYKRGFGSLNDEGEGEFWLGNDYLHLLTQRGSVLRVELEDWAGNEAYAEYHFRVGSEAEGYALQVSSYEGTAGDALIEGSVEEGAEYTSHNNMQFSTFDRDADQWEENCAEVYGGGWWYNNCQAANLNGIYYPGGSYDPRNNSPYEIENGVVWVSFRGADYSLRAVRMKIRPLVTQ
Chain of fibrinogen from human plasma (P02675 45-491, chain 2 of 3): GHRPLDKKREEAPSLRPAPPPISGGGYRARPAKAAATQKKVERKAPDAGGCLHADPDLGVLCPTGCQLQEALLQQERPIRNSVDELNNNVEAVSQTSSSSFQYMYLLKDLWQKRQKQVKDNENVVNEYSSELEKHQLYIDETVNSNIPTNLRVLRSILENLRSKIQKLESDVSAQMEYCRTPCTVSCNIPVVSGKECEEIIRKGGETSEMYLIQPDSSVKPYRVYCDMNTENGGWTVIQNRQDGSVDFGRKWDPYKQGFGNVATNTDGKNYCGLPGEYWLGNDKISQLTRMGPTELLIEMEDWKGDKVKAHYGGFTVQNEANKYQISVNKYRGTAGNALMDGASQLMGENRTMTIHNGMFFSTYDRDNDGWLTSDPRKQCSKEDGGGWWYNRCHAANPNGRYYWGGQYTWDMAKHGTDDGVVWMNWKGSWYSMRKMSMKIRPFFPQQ
Chain of fibrinogen from human plasma (P02679 27-453, chain 3 of 3): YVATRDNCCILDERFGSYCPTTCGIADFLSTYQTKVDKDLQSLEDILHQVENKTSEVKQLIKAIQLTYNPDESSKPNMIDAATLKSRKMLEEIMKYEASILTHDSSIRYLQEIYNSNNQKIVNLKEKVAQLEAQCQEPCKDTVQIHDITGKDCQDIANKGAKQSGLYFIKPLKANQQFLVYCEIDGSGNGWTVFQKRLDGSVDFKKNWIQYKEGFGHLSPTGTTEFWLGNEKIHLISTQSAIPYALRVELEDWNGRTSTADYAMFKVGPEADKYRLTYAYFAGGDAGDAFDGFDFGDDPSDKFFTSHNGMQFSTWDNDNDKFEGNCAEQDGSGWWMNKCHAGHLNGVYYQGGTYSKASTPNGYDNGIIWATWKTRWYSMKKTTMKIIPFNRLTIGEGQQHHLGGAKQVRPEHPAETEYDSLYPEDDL

Molecule “6His-PilB_(36-461) (from UniProt A0A0B7GP99 36-461) (domain or fragment)” returned a dissociation constant (Kd) in assay [1] of 494 nM.

In assay [1], “PilBvWA (from UniProt A0A0B7GP99 192-461) (domain or fragment)” registered an equilibrium dissociation constant (Kd) of 997 nM.

B1: 6His-PilB_(36-461) (domain or fragment)
chain: SSRELIEREASIQAEMRTSMQYVDRTVGKATSIFILDDSKFKGSKQGLTREWSYIGLSADGKKVMNYVWNKQKQDWDVSELGTKSLYNMKLDLEFKTEGAYQDNRLISYNLTGKYPDTNNKLGIDTAISALNTKQVFSKVAKGKKGIAIAYRTDPIQGQMNIAVSFVFDTSGSMDWDLQGRNVKKTGNESRMDILRKKSVIMIKDLAEIGNISVNLVGFSTSAKYIQQNFSNLDNGTNTIIATITKRENLNPDGVTNPGDGLRYGMISLQSQPAQLKYIVLLTDGIPNAYLVDSRALYAGNRVDLSQGAGRVTFNNPIYDLSPTLGYEYSRLGYDLYSRDSITRENSIAYAGEVSKKFGLGIKRVNVIGFSGVNHEIAYGQSLTDRIGEGGMETKYVSATNEEALQKTFSDIKKQIQQDLWFVSGP
notes: pilin module, short loop and vWA module; 48.4 kDa; synthetic gene codon optimized for E. coli; The 6His tag is noncleavable; also called native PilB; soluble portion of PilB; not shown: 6His, N-terminal, kept
B1: binding in assay [2] was put at a Kd of 865 nM.

B2: PilBvWA (domain or fragment)
chain: QGQMNIAVSFVFDTSGSMDWDLQGRNVKKTGNESRMDILRKKSVIMIKDLAEIGNISVNLVGFSTSAKYIQQNFSNLDNGTNTIIATITKRENLNPDGVTNPGDGLRYGMISLQSQPAQLKYIVLLTDGIPNAYLVDSRALYAGNRVDLSQGAGRVTFNNPIYDLSPTLGYEYSRLGYDLYSRDSITRENSIAYAGEVSKKFGLGIKRVNVIGFSGVNHEIAYGQSLTDRIGEGGMETKYVSATNEEALQKTFSDIKKQIQQDLWFVSGP
notes: PilB of Streptococcus sanguinis 2908, residues 192-461: only the von Willebrand factor A-like (vWA) module; expressed from pET28-pilB192-461; also called vWA module of PilB; PilB 192-461; source: E. coli BL21(DE3), purified; not shown: 6His, N-terminal, kept
In turn, B2 gave a Kd in assay [2] of 337 nM.

For the origin of these results see article PMC8179133, “PilB from Streptococcus sanguinis is a bimodular type IV pilin with a direct role in adhesion” (Proceedings of the National Academy of Sciences of the …, 2021).
